Primed or numbered codes have the meaning given here. Ends that are not written are not given here. 5FAM′ = 5-carboxyfluorescein
Key:
[1] = target: T1, His6-Pex5c, C-terminal fragment (residues 295-612) of S. cerevisiae PEX5 (S. cerevisiae, UniProt P35056 295-612); test: fluorescence polarisation; competition: 375 nM Pex5c and 20 nM 5FAM-…, unlabelled … (4 mM to 3.8 nM) or … (0.5 mM to 0.47 nM) added; 50 mM HEPES pH 7.4, 100 mM NaCl, 0.05% Tween-20; equilibrated 16 h at 4 °C; fit with equation 17 of Roehrl et al.; conditions: both partners purified
T1 construct: Pex5p (PEX5), PTS1 import receptor, S. cerevisiae, C-terminal fragment residues 295-612; Plasmid was a gift of Brooke M. Gardner; also called Pex5p C-terminal fragment; C-terminal truncation of Pex5p; not shown: His6, N-terminal, kept
T1 sequence (looked up): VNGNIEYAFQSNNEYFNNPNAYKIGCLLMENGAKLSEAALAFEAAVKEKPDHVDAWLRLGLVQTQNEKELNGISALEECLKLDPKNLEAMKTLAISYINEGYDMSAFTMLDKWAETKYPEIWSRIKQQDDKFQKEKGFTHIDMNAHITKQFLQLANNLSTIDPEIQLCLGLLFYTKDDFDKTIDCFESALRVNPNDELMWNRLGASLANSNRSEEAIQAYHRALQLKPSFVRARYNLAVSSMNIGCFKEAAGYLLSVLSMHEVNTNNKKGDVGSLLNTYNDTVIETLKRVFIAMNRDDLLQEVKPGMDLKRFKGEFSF

[2] = target: T1, His6-Pex5c, C-terminal fragment …; test: fluorescence polarisation; direct titration: His6-Pex5C from 6.5 uM downward in twofold increments against 20 nM 5FAM-…; 50 mM HEPES pH 7.4, 100 mM NaCl, 0.05% Tween-20; equilibrated 16 h at 4 °C; anisotropy converted to fraction bound; conditions: both partners purified

B1: PTS1 peptide (DELYKGSKL) (peptide)
peptide: DELYKGSKL
notes: peptide that results from fusion of the canonical PTS1 (SKL) to the C-terminus of YFP; source: synthetic peptide, bought: Elim Biopharmaceuticals Inc
Kd [1]: 176000 ± 17300 nM

B2: 5-Carboxyfluorescein-LGRGRRSKL (peptide)
peptide: {5FAM′}-LGRGRRSKL
notes: ePTS1: linker LGRGRR selected from a randomized six-residue linker library, followed by the canonical PTS1 SKL; also called fluorescein-tagged ePTS1 peptide; source: synthetic peptide, bought: Elim Biopharmaceuticals Inc
Kd [2]: 355 ± 6.38 nM

B3: ePTS1 peptide (LGRGRRSKL) (peptide)
peptide: LGRGRRSKL
notes: ePTS1: linker LGRGRR selected from a randomized six-residue linker library, followed by the canonical PTS1 SKL; also called enhanced PTS1; source: synthetic peptide, bought: Elim Biopharmaceuticals Inc
Kd [1]: 800 ± 100 nM

— article PMC5476825, “Towards repurposing the yeast peroxisome for compartmentalizing heterologous metabolic pathways” (Nature Communications, 2016)
